US20230025600A1, “TREATMENT OF CANCERS WITH ANTIBODY DRUG CONJUGATES (ADC) THAT BIND TO 191P4D12 PROTEINS” (AGENSYS, INC., priority 2019, published 2023)

Tests used:
[1] = Storage of reconstituted vial and prepared infusion bag; type: physicochemical
Protocol: 7. Based upon the calculated dose amount, the reconstituted solution from the vial(s) should be added to the infusion bag immediately. […] If not used immediately, reconstituted vials may be stored for up to […] in refrigeration at 2° C. to 8° C. (36° F. to 46° F.). […] Discard unused vials with reconstituted solution beyond the recommended storage time.
14. If the infusion is not administered immediately, the prepared infusion bag should not be stored longer than […] at 2° C. to 8° C. (36° F. to 46° F.).

191P4D12 = molecular target: T1, 191P4D12 (Homo sapiens, UniProt Q96NY8); assay: Comparability: analytical and biological characterization studies; conditions: binding affinity to 191P4D12, in vitro cytotoxicity, in vivo antitumor activity
T1 sequence (Q96NY8 32-510): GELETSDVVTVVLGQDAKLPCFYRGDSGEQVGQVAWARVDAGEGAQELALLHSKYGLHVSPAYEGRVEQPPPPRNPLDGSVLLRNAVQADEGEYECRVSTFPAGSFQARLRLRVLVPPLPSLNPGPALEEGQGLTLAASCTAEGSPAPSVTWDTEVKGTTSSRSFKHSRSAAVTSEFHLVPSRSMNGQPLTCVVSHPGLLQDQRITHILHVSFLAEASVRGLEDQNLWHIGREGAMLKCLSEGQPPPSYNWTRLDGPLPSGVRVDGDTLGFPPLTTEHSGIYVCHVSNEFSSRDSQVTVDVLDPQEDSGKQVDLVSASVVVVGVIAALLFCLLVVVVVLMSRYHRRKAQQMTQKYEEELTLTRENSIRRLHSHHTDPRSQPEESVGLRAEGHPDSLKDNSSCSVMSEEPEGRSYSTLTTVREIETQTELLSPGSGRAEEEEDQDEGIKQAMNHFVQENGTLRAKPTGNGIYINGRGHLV
Description: As described above and in U.S. Pat. No. 8,637,642, AGS-22M6E is an ADC derived from a murine hybridoma cell line. Enfortumab vedotin is the a Chinese hamster ovary (CHO) cell line-derived equivalent of AGS-22M6E ADC and is an exemplary product used for human treatment. Enfortumab vedotin has the same amino acid sequence, linker and cytotoxic drug as AGS-22M6E. The comparability between enfortumab vedotin and AGS-22M6E was confirmed through extensive analytical and biological characterization studies, such as binding affinity to 191P4D12, in vitro cytotoxicity, and in vivo antitumor activity.

[2] = EV-201 laboratory abnormalities; type: in vivo, human
Protocol: The data described in this section reflect exposure to PADCEV from EV-201, a single arm study in patients (n=125) with locally advanced or metastatic urothelial cancer who had received prior treatment with a PD-1 or PD-L1 inhibitor and platinum-based chemotherapy. Patients received PADCEV 1.25 mg/kg on Days 1, 8 and 15 of a 28-day cycle until disease progression or unacceptable toxicity. The median duration of exposure to PADCEV was 4.6 months (range: 0.5-15.6). […]

[3] = test system: locally advanced or metastatic urothelial cancer; assay: EV-201 single-arm trial, efficacy (BICR, RECIST v1.1); type: in vivo, human
Protocol: The efficacy of PADCEV was evaluated in EV-201 (NCT03219333), single-arm, multicenter trial that enrolled 125 patients with locally advanced or metastatic urothelial cancer who received prior treatment with a PD-1 or PD-L1 inhibitor and platinum-based chemotherapy. Patients were excluded if they had active CNS metastases, ongoing sensory or motor neuropathy >Grade 2, or uncontrolled diabetes defined as hemoglobin A1C (HbA1c)≥8% or HbA1c≥7% with associated diabetes symptoms.
The median age was 69 years (range: 40 to 84 years), 70% were male, and 85% were Caucasian. […] Ninety percent of patients had visceral metastases including 40% with liver metastases. Two-thirds of patients had pure transitional cell carcinoma (TCC) histology; 33% had TCC with other histologic variants. An immunohistochemistry clinical trial assay was used to assess patients with tumor tissue available, and detected Nectin-4 expression in all patients tested (n=120). The median number of prior systemic therapies was 3 (range: 1 to 6). Forty-six percent of patients received prior PD-1 inhibitor, 42% received prior PD-L1 inhibitor, and an additional 13% received both PD-1 and PD-L1 inhibitors. Sixty-six percent of patients received prior cisplatin-based regimens, 26% received prior carboplatin-based regimens, and an additional 8% received both cisplatin and carboplatin-based regimens.
The major efficacy outcome measures were confirmed objective response rate (ORR) and duration of response (DOR) assessed by blinded independent central review (BICR) using RECIST v1.1.

[4] = Exposure-response analysis; type: in vivo, human
rats = assay: Repeat-dose toxicology studies in rats; type: in vivo, rat
[5] = Population pharmacokinetic analysis in patients; type: in vivo, human
Description: Population pharmacokinetic analysis included data from 369 patients based on three Phase 1 studies and one Phase 2 study. Enfortumab vedotin-ejfv pharmacokinetics were characterized after single and multiple doses in patients with locally advanced or metastatic urothelial carcinoma and other solid tumors.
Steady-state concentrations of ADC and MMAE were reached after 1 treatment cycle.

[6] = EV-201, denominator 121 or 122 patients
[7] = ADC, after first treatment cycle of 1.25 mg/kg, Days 1, 8 and 15

Substance: enfortumab vedotin-ejfv [PADCEV]
- storage time of prepared infusion bag ([1]; 2° C. to 8° C.): ≤ 8 h
- storage time of reconstituted vials ([1]; refrigeration at 2° C. to 8° C.): up to 4 hours
- comparability between enfortumab vedotin and AGS-22M6E (191P4D12): confirmed
- Creatinine increased, Grade 3-4 [2, 6]: 2%
- Creatinine increased, Grades 2-4 [2, 6]: 20%
- Glucose increased, Grade 3-4 [2, 6]: 8%
- Hemoglobin decreased, Grade 3-4 [2, 6]: 10%
- Hemoglobin decreased, Grades 2-4 [2, 6]: 34%
- Leukocytes decreased, Grade 3-4 [2, 6]: 4%
- Leukocytes decreased, Grades 2-4 [2, 6]: 14%
- Lipase increased, Grade 3-4 [2, 6]: 9%
- Lipase increased, Grades 2-4 [2, 6]: 14%
- Lymphocytes decreased, Grade 3-4 [2, 6]: 10%
- Lymphocytes decreased, Grades 2-4 [2, 6]: 32%
- Neutrophils decreased, Grade 3-4 [2, 6]: 5%
- Neutrophils decreased, Grades 2-4 [2, 6]: 14%
- Phosphate decreased, Grade 3-4 [2, 6]: 10%
- Phosphate decreased, Grades 2-4 [2, 6]: 34%
- Sodium decreased, Grade 3-4 [2, 6]: 8%
- Sodium decreased, Grades 2-4 [2, 6]: 8%
- Urate increased, Grade 3-4 [2, 6]: 7%
- Urate increased, Grades 2-4 [2, 6]: 7%
- patients with non-fasting glucose >160-250 mg/dL ([2]; EV-201, fasting glucose not measured, 23 patients): ^†CTCAE Grade 2 is defined as fasting glucose >160-250 mg/dL. Fasting glucose levels were not measured in EV-201. However, 23 (19%) patients had non-fasting glucose >160-250 mg/dL.
- median time to response ([3]; EV-201): 1.84 months
- Median Duration of Response ([3]; EV-201, BICR, median follow-up 10.2 months): 7.6 months
- Complete Response Rate (CR) ([3]; EV-201, n = 125, BICR): 12%
- Partial Response Rate (PR) ([3]; EV-201, n = 125, BICR): 32%
- Confirmed ORR ([3]; EV-201, n = 125, BICR, 1.25 mg/kg Days 1, 8, 15 of 28-day cycle): 44%
- association of higher exposure ([4]; e.g. Grade >=2 peripheral neuropathy, Grade >=3 hyperglycemia): higher incidence of some adverse reactions
- association of lower exposure ([4]; exposure-response analysis): lower efficacy
- potential indicated by repeat-dose toxicity studies in rats (rats): impair male reproductive function and fertility
- reversal of testes and epididymis findings by end of recovery period (rats; up to 13 weeks): did not reverse
- findings in testes and epididymis (rats; up to 13 weeks, doses >=2 mg/kg, exposures similar to recommended human dose): decreases in testes and epididymis weights, seminiferous tubule degeneration, spermatid/spermatocyte depletion in the testes and cell debris, sperm granuloma and hypospermia/abnormal spermatids in the epididymis
- exposure (AUC) in mild, moderate or severe renal impairment ([5]; 1.25 mg/kg, compared to normal renal function): No significant differences
- AUC0-28 d, Mean (±SD) [5, 7]: 111 (38) μg · d/mL
- Cmax, Mean (±SD) [5, 7]: 28 (6.8) μg/mL
- accumulation following repeat administration ([5]; patients): Minimal accumulation
- estimated mean steady-state volume of distribution ([5]; patients): 11 L
- mean clearance (CL) ([5]; patients): 0.10 L/h
- steady-state concentrations reached after ([5]; patients): 1 treatment cycle
- time of peak ADC concentrations ([5]; patients, intravenous infusion): near the end of intravenous infusion
- elimination half-life ([5]; patients, multi-exponential declines): 81.6 h
- differences in pharmacokinetics based on age (24 to 87 years), sex, or race/ethnicity ([5]; population pharmacokinetic analysis): no clinically significant differences
